Numbering of substitutions follows the chain as printed. Values belong to the molecule of their own block, whether it stands above or below them.
Assays:
human C3 = human C3 (Homo sapiens, UniProt P01024); assay: SPR (Biacore T100) binding to human C3; conditions: for Binding affinity to C3 and C3b compared to parental molecule Clone IV: in words
Description: (§1) The kinetic parameters of the candidates are determined using a surface plasmon resonance (SPR) and Biacore T100 device. C3 and different variants thereof (Table 19) are immobilized as a ligand on a HC30M SPR sensor chip (XanTec bionanalytics, Germany) using EDC/[…] linking chemistry. Five increasing concentrations of each molecule (analyte) are consecutively injected using the single cycle kinetics (SCK) mode to determine the kinetic parameters. Regeneration between the candidates is done with 10 mM glycine*HCl, 2 M NaCl, pH 3.5. The data is fitted to a 1:1 Langmuir binding model and the kinetic parameters of on-rate (ka), off-rate (kd), and affinity […] were determined.

complement pathways = assay: Complement inhibition assays, comparison with parental Clone IV; assay type: biochemical, human; conditions: in words
Description: To identify antibodies that block all 3 complement pathways, antibodies are screened using an enzyme immunoassay for the qualitative determination of functional classical, lectin and alternative complement pathways in human serum using the WEISLAB® Complement system Screen (Svar Life Science AB, Malmö, Sweden).

human C3b = target: T1, human C3b (Homo sapiens, UniProt P01024); assay: SPR (Biacore T100) binding to human C3b
T1 construct: C3b is derived from native C3 and is the larger of two elements formed by the cleavage of C3
Description: as §1

[1] = Storage stability at 150 mg/ml, oligomerization by SE-HPLC; assay type: physicochemical; conditions: decrease in monomeric content versus start
Description: (§2) Clone I, clone II and clone III are tested for storage stability. Samples are concentrated to 150 mg/ml (Vivaspin20 centrifugal device, 5 kDa MWCO at 3800×g) and stored at 25° C. and 40° C. for up to 4 weeks. Samples are analyzed for oligomerization (SE-HPLC) and chemical degradation (IEX-HPLC). The starting monomeric purity as determined by SE-HPLC was 99.96% for each clone. The starting charge purity, as determined by IEX-HPLC was 98.07%, 97.16% and 96.76%, respectively for clone I, II and III.

[2] = target: T2, recombinant C3 (wild-type human C3) (Homo sapiens, UniProt P01024); assay: SPR (Biacore T100) binding to recombinant C3
T2 construct: 6×His (N); made in house; host or cells: CHO (ExpiFectamine CHO Expression Kit)
Description: as §1
(§3) Proteins are expressed with N-terminal 6×His tag and purified using a HisTrap Excel HP column (GE Healthcare), followed by a size-exclusion chromatography step (SUPERDEX®20010/300GL; GE Healthcare).

[3] = Storage stability at 150 mg/ml, chemical degradation by IEX-HPLC; assay type: physicochemical
Description: as §2

[4] = Viscosity at high concentrations, cone-plate-rheometer; assay type: physicochemical; conditions: 20° C., shear-rate 1000 s^−1
Description: Viscosity measurements are performed with the samples prepared for the storage stability study. In addition to the fully formulated samples (10 mM His pH 5.5, 275 mM sucrose, 0.02% w/v Polysorbate20), viscosity of each candidate is also measured in a minimal formulation (10 mM histidine pH 5.5). This is performed to evaluate the drug substance processability (e.g., filtration, pumping, diafiltration, etc.) of the candidates up to 125% of the final drug product concentration of 150 mg/ml.
Viscosity is measured at 20° C. at a shear-rate of 1000 s^−1 using a cone-plate-rheometer. Briefly, a stepwise increase of the shear rate up to 1,000 s^−1 is done collecting 100 data points, followed by a further increase of the shear rate up to 2000 s^−1, collecting another 10 data points. Finally, a stepwise decrease of the shear rate down to starting rate is done. Good drug product handling properties for filling and syringeability have been observed for all candidates

cyno C3 = assay: SPR (Biacore T100) binding to cyno C3; design: species or system cynomolgus (Macaca fascicularis)
Description: as §1

human C3 R102G = target: T3, human C3 R102G (Homo sapiens, UniProt P01024, R102G); assay: SPR (Biacore T100) binding to C3 SNP2 R102G
T3 construct: 6×His (N); made in house; host or cells: CHO (ExpiFectamine CHO Expression Kit)
Description: as §1
Single nucleotide polymorphism (SNP) in C3 has been observed across the population and certain SNPs were identified in genome-wide association studies (GWAS) to correlate with an increased risk to develop AMD. Common SNP variants include P314L, which occurs in approximately 23.3% of population, and R102G, which has been reported to occur in approximately 26-29% of population. Very rare variants, which occur in less that 2.5% of the population include K155Q, R735W, S1619W, K65Q and R161W.
The inventors therefore measured the binding affinity of the scFv of the invention to the most commonly occurring C3 forms, i.e., R102G and P314L. Wild-type human C3, human C3 P314L and human C3 R102G are expressed in the CHO cell line using the ExpiFectamine CHO Expression Kit (Thermo Fisher Scientific). Proteins are expressed with N-terminal 6×His tag and purified using a HisTrap Excel HP column (GE Healthcare), followed by a size-exclusion chromatography step (SUPERDEX®20010/300GL; GE Healthcare).

human C3 P314L = target: T4, human C3 P314L (Homo sapiens, UniProt P01024, P314L); assay: SPR (Biacore T100) binding to C3 SNP1 P314L
T4 construct: 6×His (N); made in house; host or cells: CHO (ExpiFectamine CHO Expression Kit)
Description: as §1
Single nucleotide polymorphism (SNP) in C3 has been observed across the population and certain SNPs were identified in genome-wide association studies (GWAS) to correlate with an increased risk to develop AMD. […] Very rare variants, which occur in less that 2.5% of the population include K155Q, R735W, S1619W, K65Q and R161W.
as §3

[5] = Thermal stability by differential scanning fluorimetry (DSF); assay type: physicochemical; conditions: DSF, Example 4
Description: Differential scanning fluorimetry (DSF) measures protein unfolding by monitory changes in fluorescence as a function of temperature.
The temperature of protein unfolding (Tm) is tied to the stability of antibodies, specifically to aggregation during storage and long-term stability of the therapeutic product. The thermal transitions of monoclonal antibody CH2 and CH3 domains are typically invariant for different antibodies within an isotype, with the CH2 domain unfolding prior to the CH3 domain.

[6] = Concentration-dependent monomeric stability study at 37° C.; assay type: physicochemical; conditions: for Monomeric purity/content loss after two weeks incubation at 37° C.: >100 mg/mL protein concentration; for Monomeric content after 2 weeks at 37° C. / Monomeric content at start: Clone XI 152 mg/mL, Clone X 100 mg/mL
Description: The stability of Clone VI's heavy chain framework was explored by introducing framework substitutions, thereby creating inter alia Clone X (SEQ ID NO: 38). Clone X and its disulfide bond stabilized variant Clone XI (SEQ ID NO: 39) were compared in a stability study at 37° C. and >100 mg/mL protein concentration.

T1 sequence (P01024 23-667 limits assumed): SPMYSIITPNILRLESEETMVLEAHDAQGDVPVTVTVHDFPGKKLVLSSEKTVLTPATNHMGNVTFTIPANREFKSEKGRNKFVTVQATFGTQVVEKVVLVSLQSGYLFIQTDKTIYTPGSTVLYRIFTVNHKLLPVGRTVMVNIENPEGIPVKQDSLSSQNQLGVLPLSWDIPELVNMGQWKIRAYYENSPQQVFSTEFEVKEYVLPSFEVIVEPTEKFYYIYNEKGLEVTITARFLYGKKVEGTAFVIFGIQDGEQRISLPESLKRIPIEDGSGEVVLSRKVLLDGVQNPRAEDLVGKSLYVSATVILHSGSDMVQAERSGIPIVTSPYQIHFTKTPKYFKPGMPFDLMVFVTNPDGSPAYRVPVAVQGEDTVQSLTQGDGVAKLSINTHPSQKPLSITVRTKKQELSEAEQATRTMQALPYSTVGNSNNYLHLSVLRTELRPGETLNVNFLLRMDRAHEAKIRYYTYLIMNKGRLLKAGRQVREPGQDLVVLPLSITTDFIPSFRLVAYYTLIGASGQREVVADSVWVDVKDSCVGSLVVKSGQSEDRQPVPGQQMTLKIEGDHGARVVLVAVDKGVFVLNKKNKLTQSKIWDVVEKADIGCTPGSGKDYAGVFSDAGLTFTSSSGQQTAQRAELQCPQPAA
T1 sequence (P01024 749-1663 limits assumed): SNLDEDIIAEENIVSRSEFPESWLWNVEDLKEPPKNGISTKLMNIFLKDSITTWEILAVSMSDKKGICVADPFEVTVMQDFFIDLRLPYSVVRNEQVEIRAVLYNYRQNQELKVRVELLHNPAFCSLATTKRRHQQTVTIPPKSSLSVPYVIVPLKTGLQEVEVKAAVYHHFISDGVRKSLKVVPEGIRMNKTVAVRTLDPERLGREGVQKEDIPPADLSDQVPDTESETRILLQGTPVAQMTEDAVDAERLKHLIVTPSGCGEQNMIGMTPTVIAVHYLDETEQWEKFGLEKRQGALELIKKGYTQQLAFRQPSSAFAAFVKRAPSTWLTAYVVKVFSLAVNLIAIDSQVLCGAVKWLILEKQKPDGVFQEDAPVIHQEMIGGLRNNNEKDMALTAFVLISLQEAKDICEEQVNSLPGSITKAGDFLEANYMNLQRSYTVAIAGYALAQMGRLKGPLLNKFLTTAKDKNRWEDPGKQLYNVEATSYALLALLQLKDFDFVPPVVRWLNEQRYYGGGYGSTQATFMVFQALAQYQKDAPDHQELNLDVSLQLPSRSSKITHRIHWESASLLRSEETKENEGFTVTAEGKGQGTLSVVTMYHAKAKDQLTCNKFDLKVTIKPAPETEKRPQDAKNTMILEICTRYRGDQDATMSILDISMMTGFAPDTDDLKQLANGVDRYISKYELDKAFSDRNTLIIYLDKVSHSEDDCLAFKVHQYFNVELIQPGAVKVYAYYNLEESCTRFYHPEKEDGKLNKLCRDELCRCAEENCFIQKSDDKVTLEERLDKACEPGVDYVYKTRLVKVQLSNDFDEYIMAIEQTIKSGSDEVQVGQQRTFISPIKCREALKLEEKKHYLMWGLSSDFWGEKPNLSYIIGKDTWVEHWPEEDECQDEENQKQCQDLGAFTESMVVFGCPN
human C3, sequence (P01024 23-1663): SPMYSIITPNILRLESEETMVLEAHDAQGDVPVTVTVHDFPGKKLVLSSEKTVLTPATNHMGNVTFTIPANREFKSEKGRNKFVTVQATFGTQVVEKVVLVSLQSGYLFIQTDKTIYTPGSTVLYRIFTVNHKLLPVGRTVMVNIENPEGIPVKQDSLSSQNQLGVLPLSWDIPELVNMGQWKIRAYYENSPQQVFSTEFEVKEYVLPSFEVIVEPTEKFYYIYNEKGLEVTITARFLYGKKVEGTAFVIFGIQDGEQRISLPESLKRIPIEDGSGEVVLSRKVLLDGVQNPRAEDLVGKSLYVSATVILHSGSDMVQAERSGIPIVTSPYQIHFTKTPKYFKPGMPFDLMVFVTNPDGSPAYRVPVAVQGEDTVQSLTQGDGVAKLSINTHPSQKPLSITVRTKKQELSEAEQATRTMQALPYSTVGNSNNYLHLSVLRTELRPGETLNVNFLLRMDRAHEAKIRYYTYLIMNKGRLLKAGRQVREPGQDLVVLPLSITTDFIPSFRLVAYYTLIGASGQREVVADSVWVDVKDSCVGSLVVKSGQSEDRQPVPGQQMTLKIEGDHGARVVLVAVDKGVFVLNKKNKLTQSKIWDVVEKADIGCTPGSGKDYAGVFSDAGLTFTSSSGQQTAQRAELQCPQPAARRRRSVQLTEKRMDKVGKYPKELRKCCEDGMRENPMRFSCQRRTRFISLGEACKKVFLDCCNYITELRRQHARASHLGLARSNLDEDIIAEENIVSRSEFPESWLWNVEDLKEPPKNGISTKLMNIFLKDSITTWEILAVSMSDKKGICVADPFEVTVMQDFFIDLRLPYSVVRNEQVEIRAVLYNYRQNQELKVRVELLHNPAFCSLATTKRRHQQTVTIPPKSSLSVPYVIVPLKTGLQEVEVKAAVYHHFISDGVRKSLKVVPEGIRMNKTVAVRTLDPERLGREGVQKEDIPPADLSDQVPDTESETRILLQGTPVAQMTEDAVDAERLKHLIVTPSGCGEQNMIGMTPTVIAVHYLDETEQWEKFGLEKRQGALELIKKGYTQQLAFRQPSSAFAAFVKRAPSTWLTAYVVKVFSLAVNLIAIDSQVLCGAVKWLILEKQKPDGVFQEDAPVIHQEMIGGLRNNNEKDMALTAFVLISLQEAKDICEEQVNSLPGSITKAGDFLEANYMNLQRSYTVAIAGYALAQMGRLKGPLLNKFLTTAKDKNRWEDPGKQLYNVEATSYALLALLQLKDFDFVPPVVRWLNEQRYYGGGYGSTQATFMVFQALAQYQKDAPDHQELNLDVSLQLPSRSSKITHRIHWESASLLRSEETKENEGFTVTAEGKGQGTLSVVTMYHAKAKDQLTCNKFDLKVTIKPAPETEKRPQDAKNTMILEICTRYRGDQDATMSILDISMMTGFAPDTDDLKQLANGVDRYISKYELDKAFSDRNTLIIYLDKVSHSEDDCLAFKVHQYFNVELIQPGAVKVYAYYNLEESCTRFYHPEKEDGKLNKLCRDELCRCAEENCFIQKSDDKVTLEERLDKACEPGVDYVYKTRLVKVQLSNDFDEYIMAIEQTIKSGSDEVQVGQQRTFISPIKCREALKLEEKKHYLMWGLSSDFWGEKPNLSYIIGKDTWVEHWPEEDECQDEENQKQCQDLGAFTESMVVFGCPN
T3 sequence (P01024 23-1663 R102G): as the sequence (P01024 23-1663) above, with R80G counted along it
T4 sequence (P01024 23-1663 P314L): as the sequence (P01024 23-1663) above, with P292L counted along it
T2 sequence (P01024 23-1663): as the sequence (P01024 23-1663) above

Binding affinity to C3 and C3b compared to parental molecule Clone IV (human C3; C3 and C3b): comparable binding affinity
B1: Clone VII: affinity maturation hit scFv, SEQ ID NO: 35 (protein)
scFv: MQLVLTQSPSASASLGASVKLTCTLSSAHKTYTIDWYQQQPEKGPRYLMQLKSEGSYTKGTGVPDRFSGSSSGAERYLTISSLQSEDSAVYYCGTEGVGGYVFGCGTKLTVLGGGGGSGGGGSGGGGSGGGGSQVQVVESGGGSVQPGRSLRLSCAVSGFSLYNYAMNWVRQAPGKCLEWIGIINVGGGTNYASWAKGRFTISTDNSKNTVYLQMNSLRAEDTASYYCARAVGYHHHALDPWGQGTSVTVSS
modifications: ScFv
Complement inhibition activity compared to parental molecule Clone IV (complement pathways): comparable

Binding affinity to C3 and C3b compared to parental molecule Clone IV (human C3; C3 and C3b): comparable binding affinity
B2: Clone IX: affinity maturation hit scFv, SEQ ID NO: 37 (protein)
scFv: B1 scFv with E96D
modifications: ScFv
Complement inhibition activity compared to parental molecule Clone IV (complement pathways): comparable

Increase in the binding affinity to C3 and C3b compared to Clone IV (human C3; C3 and C3b): approximately 10 fold
B3: Clone VIII: affinity maturation hit scFv, SEQ ID NO: 36 (protein)
scFv: B1 scFv with H237S, A238R
modifications: ScFv
Complement inhibition activity compared to parental molecule Clone IV (complement pathways): superior performance

Kd (human C3b; Table 19, SPR, read-out: Affinity human C3b): > 34 nM
B4: Compound A3 Fab: NGM621 surrogate in a Fab format (antibody, V domains shown)
VH: QVQLVQSGAEVKKPGASVKVSCKASGYTFTDFYMDWVRQAPGQRLEWMGYIYPHNGGTTYNQQFTGRVTITVDKSASTAYMELSSLRSEDTAVYYCARRGGFDFDYWGQGTLVTVSS
VL: DIQMTQSPSSLSASVGDRVTITCKASENVDTYVSWYQQKPGKAPKLLIYGASNRYTGVPSRFSGSGSGTDFTFTISSLQPEDIATYHCGQSHSYPLTFGQGTKLEIKR

kd recombinant C3 ([2]; off-rate): 3.5e-05 s⁻¹
ka recombinant C3 ([2]; on-rate): 270000 M⁻¹ s⁻¹
kd C3 (human C3; off-rate): 3.6e-05 s⁻¹
ka C3 (human C3; on-rate): 240000 M⁻¹ s⁻¹
kd C3b (human C3b; off-rate): 3.1e-05 s⁻¹
ka C3b (human C3b; on-rate): 250000 M⁻¹ s⁻¹
kd cyno C3 (cyno C3; off-rate): 4.3e-05 s⁻¹
ka cyno C3 (cyno C3; on-rate): 200000 M⁻¹ s⁻¹
kd C3 SNP2 R102G (human C3 R102G; off-rate): 3.2e-05 s⁻¹
ka C3 SNP2 R102G (human C3 R102G; on-rate): 280000 M⁻¹ s⁻¹
kd C3 SNP1 P314L (human C3 P314L; off-rate): 3.2e-05 s⁻¹
ka C3 SNP1 P314L (human C3 P314L; on-rate): 250000 M⁻¹ s⁻¹
B5: Clone III: humanized anti-C3 scFv, VH SEQ ID NO: 24, VL SEQ ID NO: 25; scFv SEQ ID NO: 30 or 31 (protein)
scFv: MQLVLTQSPSASASLGASVKLTCTLSSAHKTYTIDWYQQQPEKCPRYLMQLKSEGSYTKGSGIPDRFSGSSSGAERYLTISSLQSEDEADYYCGTEGVGGYVFGGGTKLTVLGGGGGSGGGGSGGGGSGGGGSQVQLVESGGGSVQPGRSLRLSCAASGFTFSNYAMNWVRQAPGKGLEWVAIINVGGGTNYADSVKGRFTISRDNSKNTLYLQMNSLRAEDTASYYCARAVGYHHARLDPWGCGTSVTVSS
Storage stability, SEC 4 weeks at 25° C. [D %] [1]: 0.10 D %
Storage stability, SEC 4 weeks at 40° C. [D %] [1]: 0.84 D %
Starting charge purity (IEX-HPLC) ([3]; before storage): 96.76%
Storage stability, IEX 4 weeks at 25° C. [D %] ([3]; decrease versus start): 0.3 D %
Storage stability, IEX 4 weeks at 40° C. [D %] ([3]; decrease versus start): 3.6 D %
Viscosity [mPa * s] Fully formulated at 150 g/L ([4]; 10 mM His pH 5.5, 275 mM sucrose, 0.02% w/v Polysorbate20): 3.3 mPa * s
Viscosity [mPa * s] Minimal buffer at 185 g/L ([4]; 10 mM His pH 5.5): 3.2 mPa * s

B6: Clone XII: scFv combining affinity maturation substitutions and disulfide bond stabilization, SEQ ID NO: 40 (protein)
scFv: MQLVLTQSPSASASLGASVKLTCTLSSAHKTYTIDWYQQQPEKCPRYLMQLKSEGSYTKGTGVPDRFSGSSSGAERYLTISSLQSEDEADYYCGTDYGGGYVFGGGTKLTVLGGGGGSGGGGSGGGGSGGGGSQVQVVESGGGSVQPGRSLRLSCAVSGFSLYNYAMNWVRQAPGKGLEWIGIINVGGGTNYASWAKGRFTISTDNSKNTVYLQMNSLRAEDTASYYCARAVGYHHARLDPWGCGTSVTVSS
modifications: ScFv
Melting temperature [5]: 70.4 °C

Binding affinity to C3 and C3b compared to parental molecule Clone IV (human C3; C3 and C3b): lower binding affinity
B7: Clone V: reformatted and humanized scFv variant of Clone IV, SEQ ID NO: 33 (protein)
scFv: MQLVLTQSPSASASLGASVKLTCTLSSAHKTYTIDWYQQQPEKGPRYLMQLKSDGSYTKGTGVPDRFSGSSSGAERYLTISSLQSEDEADYYCGTDYGGGYVFGGGTKLTVLGGGGGSGGGGSGGGGSGGGGSQVQVVESGGGSVQPGRSLRLSCAASGFSLYNYAMNWVRQAPGKGLEWIGIINTDGNTNYASWAKGRFTISTDNSKNTLYLQMNSLRAEDTASYYCPRAVGYHHHALDPWGQGTSVTVSS
modifications: ScFv
Complement inhibition activity compared to parental molecule Clone IV (complement pathways): retains its ability to inhibit the classical and alternative complement pathways

B8: Clone XI: disulfide bond stabilized variant of Clone X, SEQ ID NO: 39 (protein)
scFv: B7 scFv with G44C, A156T, A157V, L211V, P229A, Q244C
modifications: ScFv
Monomeric purity/content loss after two weeks incubation at 37° C. [6]: 3.3%
Monomeric content after 2 weeks at 37° C. [6]: 96.5%
Monomeric content at start [6]: 99.8%

B9: Clone X: Clone VI with heavy chain framework substitutions, SEQ ID NO: 38 (protein)
scFv: B7 scFv with A156T, A157V, L211V, P229A
modifications: ScFv
Monomeric purity/content loss after two weeks incubation at 37° C. [6]: 60.4%
Monomeric content after 2 weeks at 37° C. [6]: 39.3%
Monomeric content at start [6]: 99.7%

— patent US12344663B2, “Anti-C3 antibodies and antigen-binding fragments thereof and their uses for treating eye or ocular diseases” (CDR-Life AG, priority 2021, dated 2025)
